# Results as given in patent US20140363432A1.
# Experiments:
# [1] = target: recombinant hVEGF (165 amino acids) (human) (UniProt P15692); assay: cell-based or functional assay
# [2] = target: recombinant hVEGF (165 amino acids) (human) (UniProt P15692); assay: competitive binding of 125I-hVEGF against unlabeled hVEGF, immune complexes precipitated, Scatchard analysis
# [3] = target: recombinant hVEGF (165 amino acids) (human) (UniProt P15692); assay: 125I-hVEGF binding to bovine ACE cells with antibody (FIG. 3b); conditions: scale: molar ratio of antibody to hVEGF
# Sequence of UniProt P15692 (P15692 other isoform, or with tags, fused parts or gaps): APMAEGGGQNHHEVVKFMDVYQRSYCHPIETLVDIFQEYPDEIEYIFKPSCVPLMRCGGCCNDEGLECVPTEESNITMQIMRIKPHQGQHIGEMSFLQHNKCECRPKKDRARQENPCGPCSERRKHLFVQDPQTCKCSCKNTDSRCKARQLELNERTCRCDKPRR
substance,measurement,setting,value
anti-hVEGF monoclonal antibody produced by the A4.6.1 hybridoma,inhibition of hVEGF mitogenic activity on bovine ACE cells,[1],> 90 % inhibition
same,Ka,[2],1.2e+09 M⁻¹
same,molar ratio of hVEGF to antibody at complete inhibition of hVEGF binding to bovine ACE cells,[3],250
